From the supplement of paper PMC9170038

Test system: MS2 coat protein
Assay: apparent KD of MS2 coat protein; designed switch direction (-1 OFF switch, 1 ON switch): -1; higher = weaker reporter binding
Method in brief: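 An oligonucleotide input, 200 uM small-molecule ligand, or no input was present during titration of SNAP-549-labelled MS2 coat protein, which was doubled from 0.7 or 1.5 nM to 3 µM. Designed RNA switches had been transcribed on Illumina chips by stalled E. coli RNA polymerase. Apparent KD per design is the median over clusters of curves fitted to normalised cluster fluorescence.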

[1] = Eterna round: R95, input ligand: FMN 200 uM
[2] = Eterna round: R95, input ligand: microRNA oligo, concentration not stated
[3] = Eterna round: R95, input ligand: none
[4] = input ligand: microRNA oligo, concentration not stated

Row | Sequence | apparent KD of MS2 coat protein (input ligand: FMN 200 uM) | apparent KD of MS2 coat protein (input ligand: none) | apparent KD of MS2 coat protein [1] | apparent KD of MS2 coat protein [2] | apparent KD of MS2 coat protein [3] | apparent KD of MS2 coat protein [4]
1 | CCGGCAUGAGGAUAUCCAUCUGGAUCAGACAAGAUCCUGAUGGAGAAGGCACAUGAGGAUCACCCAUGUUACGG [Mat - Exclusion 4 - Eli Mod - D56] (Eterna round: R97, puzzle: Exclusion 4) | 61.8 nM | 132 nM | – | – | – | –
2 | CGAGAGCGAGGAUAUACACAACACCUCACUGUCAAGAAAGGACAUGAGGAUCACCCAUGUAGAAGGUGCAAAGC [Xecerevear] (puzzle: Exclusion 2) | – | – | 303 nM | 412 nM | 326 nM | –
3 | CUCCUCAUGACGCCUAAACACAUGAGGAUCACCCAUGUACAGGCUUUUUGUCGUCUUAUAAUAAAACCGAGGAUACG [Orlaorusti] (puzzle: Sensor v3, turn-off variant 1) | – | – | 20.2 nM | 116 nM | 23.2 nM | –
4 | GCGCACCUACCAAAAGGUAGGCCAACAUGAGGAUCACCCAUGUAGGAUAUCGAUUGCUUUGCAGUCGAGAAGGGCAUGAUGCGC [JL ENG3 3.80 Mod 20] (Eterna round: R96, puzzle: Exclusion NG 3) | 17.2 nM | 19.9 nM | – | – | – | 14.4 nM
5 | AAAUAGGCAGGAUAUACAUGAGGAUCACCCAUGUAAAUUUUUCGUUUAACUUGAAUGUGUAGAAGGGCCAUAAA [Ex3 #54] (Eterna round: R97, puzzle: Exclusion 3) | 27.4 nM | 26.8 nM | – | – | – | –
6 | GCAGACGUAGUGAGGAUAUGCUCUACCUCGGUAGAGCAGAAGGCACAUGAGGAUCACCCAUGUGACUCCUCAUC [Omei Ex4B B18] (Eterna round: R97, puzzle: Brourd's mod of Exclusion 4) | 49.2 nM | 20.1 nM | – | – | – | –
7 | UAUAUGUGAGGAUAUCAGGUGUGCUAGCGUACUGGUACAUCUGAGAAGGCACAUGAGGAUCACCCAUGUAUCUU [JL-ex4-3.25 Brourd mod] (puzzle: Exclusion 4) | – | – | – | 25.5 nM | – | –
8 | CGUCCGGCUUCCCUUCAAGACAUGAGGAUCACCCAUGUUUUUGUUUUUGCGAGCUUUUUGCUUUUUGCUCGUCUUGU [Even Better Attempt 2] (puzzle: Sensor v3, turn-off variant 1) | – | – | 20.2 nM | 13 nM | 18.7 nM | –
9 | UUUAAUUUUUUUUUUUUACAAGCUUUUUGCUCGUCUUAUACAUGAGGAUCACCCAUGUGGGUAGGAGAUAAAUUAUC [JMF 16] (puzzle: Sensor v3, turn-off variant 2) | – | – | 32.1 nM | 45.4 nM | 57 nM | –
10 | ACUAGAUGAGGAUAUGCAUAUUUUCGUGUUCUUCUAGGUUAACAUGAGGAUCACCCAUGUAGAAGGCGUCUAUG [Exclusion 2 - 24] (puzzle: Exclusion 2) | – | – | – | 19.3 nM | – | –
11 | CAGGGCAUGCGAGGAUAUAGCAACAUGAGGAUCACCCAUGUAUAAGGGUGUCCUAGGCAUGCGCGCUAGAAGGCGCUGGUUCUC [Onreusve] (Eterna round: R96, puzzle: Exclusion NG 2) | 431 nM | 75.5 nM | – | – | – | 18.9 nM
12 | UCGCUCCGUGUAGGAUAUCGCCGUUCUAUUCGGCGAGAAGGACAUGAGGAUCACCCAUGUAUGUUAUUAUCACGCGUGGCGCGC [Design 56] (Eterna round: R96, puzzle: Exclusion NG 1) | 18.8 nM | 15.4 nM | – | – | – | 8.79 nM
13 | GUCGUGAGACAGGAUAUCCAAUCUAAACACGAGGGAGAAGGGUCUACAUGAGGAUCACCCAUGUGGUCUCAAAA [Aonondiin] (puzzle: Exclusion 6) | – | – | – | 17.2 nM | – | –
14 | GAUGAGGUAGGAUAUACGAGAAGAUAGGGUAGAUAGAGAACACAUGAGGAUCACCCAUGUAGAAGGACCAGUAG [Mat - Exclusion 2 - Mod of my Tesla design - D73] (puzzle: Exclusion 2) | – | – | – | 25.9 nM | – | –
15 | GAUAGAGAGCAGGAUAUCUUGGAUAAGUAUUGUAGAGAAGGGCUCACAUGAGGAUCACCCAUGUGGUCCUAGAU [JL Dibiri mod 10] (puzzle: Exclusion 6) | – | – | – | 14.8 nM | – | –
16 | AAUGCCAGAGGAUAUACAUGAGGAUCACCCAUGUUAAAUGAUCCUGUGCUAGAUGCACGUAGAAGGCUGUAAAA [EX3 A.8] (Eterna round: R97, puzzle: Exclusion 3) | 15.5 nM | 12.9 nM | – | – | – | –

Row | Sequence | apparent KD of MS2 coat protein (input ligand: FMN 200 uM) | apparent KD of MS2 coat protein (input ligand: none) | apparent KD of MS2 coat protein [1] | apparent KD of MS2 coat protein [2] | apparent KD of MS2 coat protein [3] | apparent KD of MS2 coat protein [4]
17 | GCAGUUCGAGUUAGGAUAUGAUGUUAAUUCGGAUAUCAGAAGGAACUUGAGGAUCACCCAAGUAUAGAUGUUGC [JR_BMEx4_Sub060] (Eterna round: R97, puzzle: Brourd's mod of Exclusion 4) | 29.6 nM | 18.6 nM | – | – | – | –
18 | GGUCAAGGACAGCUCCGCGCUGCCCUUGACCGCUCAUUUACAUGAGGAUCACCCAUGUUUUUUGCUUGUCUUGUUUC [Atedorgela] (puzzle: Sensor v3, turn-off variant 2) | – | – | 20 nM | 110 nM | 24.2 nM | –
19 | CGACCACAUGAGGAUCACCCAUGUCAGGAUAUGAGAGCCUUACGAAAGAGACGGCAGCUUAGAAGGGAUGCGGC [Eternabot (L1) Solution 74] (Eterna round: R97, puzzle: Exclusion 1) | 23.3 nM | 26.9 nM | – | – | – | –
20 | GGUCAAGAACAGCGCCGCGCUGCCCUUGACCGCUCAUUUACAUGAGGAUCACCCAUGUUUUUUGCUUGUCUUGUUUC [Tiordiri] (puzzle: Sensor v3, turn-off variant 2) | – | – | 20.6 nM | 101 nM | 23.7 nM | –
21 | GAAAAGGUAGGAUAUACGAAAAGAAAGGGUAGAAGAAGAACACAUGAGGAUCACCCAUGUAGAAGGACCAAAAG [Mat - Exclusion 2 - Mod of my Tesla design - D1] (puzzle: Exclusion 2) | – | – | 73.1 nM | 18.5 nM | 16.5 nM | –
22 | CUAUAGUCAGGAUAUCUAAACAGGCCGAGCGUUCGCAGUCGAGAGAAGGGACAUGAGGAUCACCCAUGUCCUCC [Eternabot (L1) Solution 6] (Eterna round: R97, puzzle: Exclusion 4) | 15.2 nM | 15.6 nM | – | – | – | –
23 | UAUAACCAAGGAUAUACAUGAGGAUCACCCAUGUAAUAUAAAAUAAAAUAAAUAAAAUGUAGAAGGUGGGAUAU (Eterna round: R97, puzzle: Exclusion 3) | 40.8 nM | 37.6 nM | – | – | – | –
24 | CGUUGGCGAGGAUAUACAUGAGGAUCACCCAUGUGAGAGAUACUAGUGAGGUCGAUUAGUAGAAGGCGCUGACG [Mat X3R4 m1] (Eterna round: R97, puzzle: Exclusion 3) | 949 nM | 34.9 nM | – | – | – | –
25 | CAGUACUGAGGAUAUACAUGAGGAUCACCCAUGUUGAGAUGAAAAGAAAGAGUUAAAUGUAGAAGGCGGUGCUG [JR_Ex3_Sub047] (Eterna round: R97, puzzle: Exclusion 3) | 523 nM | 71.1 nM | – | – | – | –
26 | ACAAGCUUAAAAGGUGAUAACAUGAGGAUCACCCAUGUUCGUCUUAUAAAGAUCCUAUGUCGAAAGACAUAGGAUCA [Sensor 3, v1 - 68] (puzzle: Sensor v3, turn-off variant 1) | – | – | 18.8 nM | 39.4 nM | 20.9 nM | –
27 | UAUUUAAUUAACAAGCUUUACAUGAGGAUCACCCAUGUGAUCAUGCUCGUCUUAGGUACAGGCUUCGGCCUGUACCA [Stov1/6-B2] (Eterna round: R97, puzzle: Sensor, turn-off variant 1) | 51.8 nM | 55.9 nM | – | – | – | –
28 | AACGUCUAGGUAGGAUAUCCACCAACAGGUGGAAGGAUAUGUUCGCAGAAGGUUCGCCAACAGGCGGAGAAGGACCUACGCGUA [pwkr exNG2 2xF7 2xFMN.31] (Eterna round: R96, puzzle: Exclusion NG 2) | 11.1 nM | 116 nM | – | – | – | 24.6 nM
29 | UAAGAGUGAGGAUAUACGUCGCUGGCCCGGAUGGACGCAUGACAUGAGGAUCACCCAUGUAGAAGGCACAAAAC [Enxela Mod 14 - Jieux - Exclusion 2] (Eterna round: R97, puzzle: Exclusion 2) | 34.7 nM | 29.7 nM | – | – | – | –
30 | ACAUUGCGAGGAUAUACAUGAGGAUCACCCAUGUGGUAGUGGAUACGGUAGGGCUAGUGUAGAAGGUGUUAUGA [EX3 #15] (Eterna round: R97, puzzle: Exclusion 3) | 98.8 nM | 132 nM | – | – | – | –
31 | CUUUUGUGAGGAUAUCAGUAGUAGAACAAUAGUACUACUACUGAGAAGGCACAUGAGGAUCACCCAUGUACCUC [Fiskers Ex 4 Super stable 44 mod 3] (puzzle: Exclusion 4) | – | – | – | 18.8 nM | – | –
